Patent US20140120109A1 (Regeneron, published 2014)
Residue numbers refer to the chain shown, from its start. Names and notes keep the numbering of the source. Each block holds one binder with its values, some of them ahead of it.

Experiments:
[1] = biological target: T1, human TL1A, soluble, CHO-expressed, residues 72-251 of SEQ ID NO:244 with N-terminal His6-tag (human, UniProt O95150 72-251); experiment: ELISA, blocks hTL1A (10 pM) binding hDcR3-Fc
T1 construct: also called hTL1A; hTL1A (CHO)
T1 sequence: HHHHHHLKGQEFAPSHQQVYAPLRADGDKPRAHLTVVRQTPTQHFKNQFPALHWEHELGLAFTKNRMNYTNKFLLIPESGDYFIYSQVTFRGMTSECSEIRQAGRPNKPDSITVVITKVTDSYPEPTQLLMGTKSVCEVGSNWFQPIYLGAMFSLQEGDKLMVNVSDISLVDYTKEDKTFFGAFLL
Protocol: (§1) The ability of antibodies to block human TL1A binding to its cognate receptors, the DR3 and DcR3 receptors, was measured using a competition sandwich ELISA. In addition, blocking of a human TL1A variant FHM (human TL1A Q167R) and the cynomolgus monkey (Macaca fascicularis) TL1A (MfTL1A) protein binding to the human DR3 or DcR3 receptors was measured in the same manner. Constant amounts of biotinylated human TL1A or FHM (both expressed with a 6-His tag in CHO cells) or biotinylated MfTL1A (expressed in CHO cells) were separately titrated with varying amounts of antibodies. The antibody-protein complexes were incubated in solution (1 hr, 25° C.) and then transferred to microtiter plates coated with human DR3 (hDR3) or human DcR3 (hDcR3) expressed as human IgG1 Fc fusion proteins. After one hour at 25° C. the wells were washed, and bound human or monkey TL1A was detected with streptavidin conjugated with horseradish peroxidase (HRP). Wells were developed with a TMB solution to produce a colorimetric reaction and quenched with aqueous sulfuric acid before reading absorbance at 450 nm on a Perkin-Elmer Victor X5 plate reader. A sigmoidal dose-response curve was fit to the data using the Prism™ data analysis package. […] Both fully human anti-hTL1A mAbs and comparator antibodies, i.e., control mAb1 (an anti-hTL1A antibody with heavy and light chain variable domains having the amino acid sequences corresponding to SEQ ID NOS:21 and 27, respectively, of US 2009/0280116) and control mAb3 (an anti-hTL1A antibody with heavy and light chain variable domains having the amino acid sequences corresponding to SEQ ID NOS:57 and 48, respectively, of US 2009/0280116), were included in the study. NB: No binding under the conditions tested; NT: Not tested. Concentrations of biotinylated soluble ligands: (1) 150 pM; (2) 500 pM; (3) 10 pM; and (4) 50 pM.

[2] = biological target: T2, human TL1A, soluble, E. coli-expressed, residues 72-251 of SEQ ID NO:244 (human, UniProt O95150 72-251); experiment: cell-based or functional assay
T2 sequence: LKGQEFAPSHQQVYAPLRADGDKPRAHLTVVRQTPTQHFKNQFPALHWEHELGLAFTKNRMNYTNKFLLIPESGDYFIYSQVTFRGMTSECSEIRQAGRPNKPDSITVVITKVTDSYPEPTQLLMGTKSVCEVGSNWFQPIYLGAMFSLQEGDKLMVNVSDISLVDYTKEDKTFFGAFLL

[3] = biological target: T1, human TL1A, soluble, CHO-expressed, …; experiment: cell-based or functional assay
[4] = biological target: T3, cynomolgus monkey TL1A, soluble, CHO-expressed, residues 72-251 of SEQ ID NO:248 with N-terminal His6-tag (cynomolgus monkey (Macaca fascicularis), UniProt O95150 72-251 (human entry)); experiment: cell-based or functional assay
T3 chain: T1 sequence with F45L, I84V

[5] = biological target: T4, cynomolgus monkey TL1A, soluble, E. coli-expressed, residues 72-251 of SEQ ID NO:248 (cynomolgus monkey (Macaca fascicularis), UniProt O95150 72-251 (human entry)); experiment: cell-based or functional assay
T4 chain: T2 sequence with F39L, I78V

[6] = biological target: T1, human TL1A, soluble, CHO-expressed, …; experiment: cell-based or functional assay; remark: listed apart in the source
[7] = biological target: T1, human TL1A, soluble, CHO-expressed, …; experiment: SPR 25C, mAb captured
Outline: (§2)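 Biacore T100 SPR with captured mAb and soluble TL1A/Fhm analyte; ka and kd fitted to a 1:1 model assuming monomeric TL1A. KD = kd/ka; t1/2 (min) = ln2/(60·kd).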

[8] = biological target: T3, cynomolgus monkey TL1A, soluble, …; experiment: SPR 25C, mAb captured
Outline: as §2

[9] = biological target: T3, cynomolgus monkey TL1A, soluble, …; experiment: ELISA, blocks MfTL1A (500 pM) binding hDR3-Fc
Protocol: as §1

B2: H4H1704N (antibody, human IgG4 S228P, V domains shown)
VH: EVQLVESGGGLVQPGGSLRLSCAVSGFTFSSYWMSWVRQAPGKGLEWVANIKEDGSEKNYVDSVKGRFTLSSDNAKNSLYLQMNSLRAEDTAVYYCAREDYDSYYKYGMDVWGQGTAVIVSS
VL: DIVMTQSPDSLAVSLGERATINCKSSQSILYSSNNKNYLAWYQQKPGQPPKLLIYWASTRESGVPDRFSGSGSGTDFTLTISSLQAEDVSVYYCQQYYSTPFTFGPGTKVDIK
notes: human IgG4(S108P) form of H2M1704N
- IC50 [1]: 77 pM
- IC50, NFkB-luciferase reporter [2]: 60 pM
- IC50, NFkB-luciferase reporter [3]: 130 pM
- IC50, NFkB-luciferase reporter [4]: 10 pM
- IC50, NFkB-luciferase reporter [5]: 30 pM
- Average % Blocking IFN-g, 3 ug/ml mAb [6]: 98%
- Kd [7]: 39.2 pM
- t1/2 [7]: 7.55 h
- Kd [8]: 59.9 pM
- t1/2 [8]: 4.6 h
- IC50 [9]: 42 pM

B3: H4H1805N (antibody, human IgG4 S228P, V domains shown)
VH: QVQLQQWGAGLLKPSETLSLTCAVYGGSFTGFYWSWIRQPPGKGLEWIGEINHRGNTNYNPSLKSRVTMSVDTSKNQFSLNMISVTAADTAMYFCASPFYDFWSGSDYWGQGTLVTVSS
VL: DIMLTQTPLTSPVTLGQPASISCKSSQSLVHSDGNTYLSWLQQRPGQPPRLLFYKISNRFSGVPDRFSGSGAGTDFTLKISRVEAEDVGVYYCMQATQFPLTFGGGTKVEIK
notes: human IgG4(S108P) form of H2M1805N
- IC50 [1]: 33 pM
- IC50, NFkB-luciferase reporter [2]: 40 pM
- IC50, NFkB-luciferase reporter [3]: 100 pM
- IC50, NFkB-luciferase reporter [4]: 30 pM
- IC50, NFkB-luciferase reporter [5]: 20 pM
- Average % Blocking IFN-g, 3 ug/ml mAb [6]: 94%
- Kd [7]: 365 pM
- t1/2 [7]: 1.22 h
- Kd [8]: 342 pM
- t1/2 [8]: 1.23 h
- IC50 [9]: 26 pM

B5: H4H1817N (antibody, human IgG4 S228P, V domains shown)
VH: QVQLQQWGAGLLKPSETLSLTCAVSGGSFSDYFWTWIRQPPGKGLEWIGEISHSGRTNYNPSLKSRVTISVDTSMSQFSLKMTSVTAADSAVYYCARDYPNWVFDYWGQGTLVTVSS
VL: EIELTQSPGTLSLSPGEGATLSCRASQSVFNSYLAWYQQKPGQAPRLLIYGASRRATGIPDRFSGSGSGTDFTLTISRLEPGDFAVYFCQQYGNSPLTFGGGTKVEIK
notes: human IgG4(S108P) form of H2M1817N
- IC50 [1]: 270 pM
- IC50, NFkB-luciferase reporter [2]: 40 pM
- IC50, NFkB-luciferase reporter [3]: 110 pM
- IC50, NFkB-luciferase reporter [4]: 40 pM
- IC50, NFkB-luciferase reporter [5]: 20 pM
- Average % Blocking IFN-g, 3 ug/ml mAb [6]: 98%
- Kd [7]: 321 pM
- t1/2 [7]: 1.72 h
- Kd [8]: 356 pM
- t1/2 [8]: 1.53 h
- IC50 [9]: 101 pM

B6: H4H1681N (antibody, human IgG4 S228P, V domains shown)
VH: EVQLLESGGGLVQPGKSLRLSCAVSGFTFSTYGMNWVRQAPGKGLEWVSSISGTGRTTYHADSVQGRFTVSRDNSKNILYLQMNSLRADDTAVYFCTKERGDYYYGVFDYWGQGTLVTVSS
VL: DIQMTQSPSTLSASVGDRVTITCRASQTISSWLAWYQQTPEKAPKLLIYAASNLQSGVPSRFSGSGSGTEFTLTISSLQPDDFATYYCQQYHRSWTFGQGTKVEIT
- IC50 [1]: 17 pM
- IC50, NFkB-luciferase reporter [2]: 20 pM
- IC50, NFkB-luciferase reporter [3]: 170 pM
- IC50, NFkB-luciferase reporter [4]: 30 pM
- IC50, NFkB-luciferase reporter [5]: 20 pM
- Average % Blocking IFN-g, 3 ug/ml mAb [6]: 95%
- Kd [7]: 263 pM
- t1/2 [7]: 0.6 h
- Kd [8]: 404 pM
- t1/2 [8]: 0.417 h
- IC50 [9]: 141 pM

B7: H4H1818N (antibody, human IgG4 S228P, V domains shown)
VH: RLQLVESGGGLVKPGGSLKLSCAASGFTISDYYMSWIRQAPGKGLEWVSYIGGSGSTIYYADSVKGRFTISRDNAKNSLYLQMNSLRAEDTAVYYCAREDADSYYYYGMDVWGQGTTVTVSS
VL: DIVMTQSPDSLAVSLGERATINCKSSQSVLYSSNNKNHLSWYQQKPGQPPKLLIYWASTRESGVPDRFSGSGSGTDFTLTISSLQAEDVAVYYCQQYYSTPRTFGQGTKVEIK
notes: human IgG4(S108P) form of H2M1818N
- IC50 [1]: 232 pM
- IC50, NFkB-luciferase reporter [2]: 290 pM
- IC50, NFkB-luciferase reporter [3]: 370 pM
- IC50, NFkB-luciferase reporter [4]: 130 pM
- IC50, NFkB-luciferase reporter [5]: 60 pM
- Average % Blocking IFN-g, 3 ug/ml mAb [6]: 71%
- Kd [7]: 124 pM
- t1/2 [7]: 2 h
- Kd [8]: 119 pM
- t1/2 [8]: 2.03 h
- IC50 [9]: 123 pM

Now from value to binder:

- IC50 [1]: 31 pM
- IC50, NFkB-luciferase reporter [2]: 210 pM
- IC50, NFkB-luciferase reporter [3]: 360 pM
- IC50, NFkB-luciferase reporter [4]: 120 pM
- IC50, NFkB-luciferase reporter [5]: 50 pM
- Average % Blocking IFN-g, 3 ug/ml mAb [6]: 71%
- Kd [7]: 156 pM
- t1/2 [7]: 3.28 h
- Kd [8]: 213 pM
- t1/2 [8]: 2.32 h
- IC50 [9]: 110 pM
B1: H4H1752P (antibody, human IgG4 S228P, V domains shown)
VH: EVQLVESGGGLVQPGGSLRLSCSASGFTFSKYVMTWVRQAPGKGLEWVSAIGPTGRTTEYADSVQGRFTISRDNSMNTVFLHLNSLTAEDTAEYYCAKMFDWNYDVYFDSWGQGTLVTVSS
VL: DIQMTQSPSILSASVGDRVTITCRTSQSISNWLAWYQQKPGKAPNLLIYKASSLESGVPSRFSGSGSGTEFTLTISSLQPDDFATYYCQQYYRYWTFGQGTKVEIK

- IC50 [1]: 175 pM
- IC50, NFkB-luciferase reporter [2]: 30 pM
- IC50, NFkB-luciferase reporter [3]: 70 pM
- IC50, NFkB-luciferase reporter [4]: 30 pM
- IC50, NFkB-luciferase reporter [5]: 20 pM
- Average % Blocking IFN-g, 3 ug/ml mAb [6]: 98%
- Kd [7]: 291 pM
- t1/2 [7]: 0.85 h
- Kd [8]: 264 pM
- t1/2 [8]: 0.817 h
- IC50 [9]: 71 pM
B4: H4H1804N (antibody, human IgG4 S228P, V domains shown)
VH: QVQLHQWGAGLLKPSETLSLTCAVSGVSFSDYHWAWIRQSPGKGLEWIGDINHRGRTNYNPSLKSRVTISLDTSGNPFSLKLTSVTAADTAVYYCARDFPNWVFDSWGQGILVTVSS
VL: EIVLSQSPGTLSLSPGERATLSCRASQSVSSSFLAWYQQYPGQAPRLLIYGASRRATGIPDRFRGSGSGTDFTLTISRLEPEDFAVYYCQQYGSSPLTFGGGTKVENK
notes: human IgG4(S108P) form of H2M1804N

- IC50 [1]: 656 pM
- IC50, NFkB-luciferase reporter [2]: 2170 pM
- IC50, NFkB-luciferase reporter [3]: 900 pM
- IC50, NFkB-luciferase reporter [4]: 155000 pM
- IC50, NFkB-luciferase reporter [5]: 32500 pM
- Average % Blocking IFN-g, 3 ug/ml mAb [6]: 89%
B8: H4H1750P (antibody, human IgG4 S228P, V domains shown)
VH: QVQLVESGGGVVQPGRSLRLSCVASGFTFSNYGMHWVRQAPGKGLEWVAVISYDGNNDLYSDSVKGRFTISRDNAKNALSLQMTSLRAEDTAVYYCARDSTMTPYYYHGIDVWGQGTTVTVSA
VL: DIQMTQSPSSLSASVGDRVTITCRASQDIRNDLGWYQQKPGKAPKRLIYAASSLQSGVPSRFSGSGSGTDFTLTISSLQPEDFATYYCLQHNSYPPTFGQGTKVEIK
